According to patent US7291492:

How the values were obtained:
[1] = target: [3H]acetyl-labelled peptide corresponding to the N-Terminus of Histone H3, P68431
[2] = target: [3H]acetyl-labelled peptide corresponding to the N-Terminus of histone H4, P62805

B1: N-Terminus flag tagged HDAC9 (protein)
chain: MHSMISSVDVKSEVPVGLEPISPLDLRTDLRMMMPVVDPVVREKQLQQELLLIQQQQQIQKQLLIAEFQKQHENLTRQHQAQLQEHIKLQQELLAIKQQQELLEKEQKLEQQRQEQEVERHRREQQLPPLRGKDRGRERAVASTEVKQKLQEFLLSKSATKDTPTNGKNHSVSRHPKLWYTAAHHTSLDQSSPPLSGTSPSYKYTLPGAQDAKDDFPLRKTASEPNLKVRSRLKQKVAERRSSPLLRRKDGNVVTSFKKRMFEVTESSVSSSSPGSGPSSPNNGPTGSVTENETSVLPPTPHAEQMVSQQRILIHEDSMNLLSLYTSPSLPNITLGLPAVPSQLNASNSLKEKQKCETQTLRQGVPLPGQYGGSIPASSSHPHVTLEGKPPNSSHQALLQHLLLKEQMRQQKLLVAGGVPLHPQSPLATKERISPGIRGTHKLPRHRPLNRTQSAPLPQSTLAQLVIQQQHQQFLEKQKQYQQQIHMNKLLSKSIEQLKQPGSHLEEAEEELQGDQAMQEDRAPSSGNSTRSDSSACVDDTLGQVGAVKVKEEPVDSDEDAQIQEMESGEQAAFMQQPFLEPTHTRALSVRQAPLAAVGMDGLEKHRLVSRTHSSPAASVLPHPAMDRPLQPGSATGIAYDPLMLKHQCVCGNSTTHPEHAGRIQSIWSRLQETGLLNKCERIQGRKASLEEIQLVHSEHHSLLYGTNPLDGQKLDPRILLGDDSQKFFSSLPCGGLGVDSDTIWNELRSSGAARMAVGCVIELASKVASGELKNGFAVVRPPGHHAEESTAMGFCFFNSVAITAKYLRDQLNISKILIVDLDVHHGNGTQQAFYADPSILYISLHRYDEGNFFPGSGAPNEVGTGLGEGYNINIAWTGGLDPPMGDVEYLEAFRTIVKPVAKEFDPDMVLVSAGFDALEGHTPPLGGYKVTAKCFGHLTKQLMTLADGRVVLALEGGHDLTAICDASEACVNALLGNELEPLAEDILHQSPNMNAVISLQKIIEIQSKYWKSVRMVAVPRGCALAGAQLQEETETVSALASLTVDVEQPFAQEDSRTAGEPMEEEPAL
histone deacetylase activity (release of [3H]acetate from the peptide) [1]: Higher activities of HDAC9 have been detected towards peptide substrates derived from histone H3 than from histone H4 | histone deacetylase activity (release of [3H]acetate from the peptide), relative to HDAC1 [2]: HDAC9 contains about 25% activity of HDAC1 | histone deacetylase activity (release of [3H]acetate from the peptide), relative to HDACs 4 and 5 [2]: 50% activity of HDACs 4 and 5
